These results are taken from paper PMC5120336, “The N-terminal loop of IRAK-4 death domain regulates ordered assembly of the Myddosome signalling scaffold” (Scientific Reports, 2016).

Data set [1] deals with the molecule itself. Description: SEC; Myddosome assembly assay: death domains alone or mixed 1:1, concentrated to 0.5 mg.ml^-1, calibrated TSKgel SuperSW3000 analytical size exclusion column, 0.3 ml.min^-1, peaks analysed by reducing SDS-PAGE.
Data set [2] has as its target T1, MyD88 (LUMIER construct) (human, UniProt Q99836 1-296).
T1 construct: MyD88, human
In words: LUMIER; affinity purification of Protein A tagged proteins on magnetic IgG beads (Dynabeads M-280, sheep anti-rabbit IgG); co-purified protein detected by Renilla luciferase activity. The following applies: partners not purified.

B1: MyD88 containing the death domain and intermediate domain (aa 1 to 158) (domain or fragment, human, UniProt Q99836 1-158, looked up)
chain: MAAGGPGAGSAAPVSSTSSLPLAALNMRVRRRLSLFLNVRTQVAADWTALAEEMDFEYLEIRQLETQADPTGRLLDAWQGRPGASVGRLLELLTKLGRDDVLLELGPSIEEDCQKYILKQQQEEAEKPLQVAAVDSSVPRTAELAGITTLDDPLGHMP
notes: MyD88, human, death domain and intermediate domain, aa 1 to 158; Alone it elutes as a dimer (35 kDa) on size exclusion; also called MyD88 DD; MyD88 death domain; source: E. coli BL21 Star (DE3), purified (GSTrap with on-column Tev cleavage, HisTrap, Superdex 75); not shown: 6xHis-GST, N-terminal, cleaved
As to B1, the “stoichiometry N” value in data set [1] is 2.

B2: IRAK-4 kinase dead mutant (KK213AA) (LUMIER construct) (natural protein, human, UniProt Q9NWZ3 1-460, looked up)
chain: MNKPITPSTYVRCLNVGLIRKLSDFIDPQEGWKKLAVAIKKPSGDDRYNQFHIRRFEALLQTGKSPTSELLFDWGTTNCTVGDLVDLLIQNEFFAPASLLLPDAVPKTANTLPSKEAITVQQKQMPFCDKDRTLMTPVQNLEQSYMPPDSSSPENKSLEVSDTRFHSFSFYELKNVTNNFDERPISVGGNKMGEGGFGVVYKGYVNNTTVAVAALAAMVDITTEELKQQFDQEIKVMAKCQHENLVELLGFSSDGDDLCLVYVYMPNGSLLDRLSCLDGTPPLSWHMRCKIAQGAANGINFLHENHHIHRDIKSANILLDEAFTAKISDFGLARASEKFAQTVMTSRIVGTTAYMAPEALRGEITPKSDIYSFGVVLLEIITGLPAVDEHREPQLLLDIKEEIEDEEKTIEDYIDKKMNDADSTSVEAMYSVASQCLHEKKNKRPDIKKVQQLLQEMTAS
notes: IRAK-4, human; also called kinase dead IRAK-4; KD
On to B2, for which the “fold binding against wild-type IRAK-4” value in data set [2] is about 5 fold.
